The results in this text go back to the nanobody polyreactivity screen of Harvey et al. (2022).

This series is described as follows: yeast display, Sf9 membrane polyspecificity reagent, FACS + sequencing; frameworks hold sequencing errors. The method in brief:
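A nanobody's polyreactivity label depends on the gate it was sorted from. Yeast display cells were stained with 10% biotinylated, detergent-solubilized Sf9 membrane reagent for 1 hour at 4 °C, enriched on streptavidin microbeads and sorted by FACS. The low and high (top ~1%) gates were set on anti-HA fluorescence for expression and streptavidin fluorescence for reagent binding.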
Regarding “QDQLVESGGGLFQAGGSLRLSCAASGGIFGFYAMGWSRKAPGKERELVAAISWGGGSTYYADSVKGRFTISRDNAKNTVYLQMNSLKPEDTAFYYCAADPALTIEYGYWGQVTQVTVSS”, the “polyreactivity (PSR sort gate)” value is reported as “low polyreactivity”. Regarding “QDQLVESGGGLFQAGGSLRLSCGASGFIFRWNAMGWSRQAPGKEREMVAAITRGGSTYYADSVKGRFSISRDNAKNTVYLQMNSLKPEDTAVYFCAAGYVYRGASGGYWGQGTQVTVSS”, the “polyreactivity (PSR sort gate)” value was “high polyreactivity”.

Turning to “QDQLVESGGGLLQAGGSLRLSCAASGRTFNSYAMGWYRQAPGKERVLVAAISSSGGSTYYADSVKGRFTISRDNAKNTVYLEMNSLKPEDTAVYYCAAGLGSTSALLYGYWGQGTLVTVSS”, the “polyreactivity (PSR sort gate)” value is given as “high polyreactivity”. Take “QDQLVESGGGLVHAGGSLLLSCAACRRLFSQYVMGWYRQAPGKERELVAAISSGGGRTYYADSVKGRFTISRDYAKNTVYLQLNSLKPEDTAVYYCATLRPSAYPQYDSWGQGTQVTVSS”: the “polyreactivity (PSR sort gate)” value was “high polyreactivity”. Regarding “QDQLVESGGGLVHAGGSLRLSCAASGNNFSSYVMGWYRQATGKERELVAAISSRGGSTYYADSVKGRFTISRDNSKNTVYLQMNCLKPEDTAVYYCAARYLSCYDWGQGTQVSVSS”, the “polyreactivity (PSR sort gate)” value is reported as “high polyreactivity”.

Regarding “QDQLVESGGGLVQAGASLRLSCAASGSIICLYAMGWYRQAPGKERELVARITRSGGRTYYADSVKGRFTISRDNAKNTVYLQTNSLKPEDTAVYYCNAYGPNIYSSRYDYWGQGTQVSVSS”, the “polyreactivity (PSR sort gate)” value is “low polyreactivity”. For “QDQLVESGGGLVQAGGRLRLSCAASGFTFHKYAMGWSRPAPGKDRELVAAITSSGGSTYYADSVKGRFTISRDYAKNTVYLQMTSLKPEDTAVYYCNARGGGRKSYDYWGQGTQVTVSS”, the “polyreactivity (PSR sort gate)” value was “high polyreactivity”. As for “QDQLVESGGGLVQAGGRLRLSCAASGLIFENYAMGWYRQSPGKERDLVAAITTSGGSTYYADSVKGRFTISRDNAKNTVYLQMNSLKPEDTAVYDCAAVGVRSRYYGYDYWGQGTLVTVSS”, the “polyreactivity (PSR sort gate)” value was “high polyreactivity”.

Turning to “QDQLVESGGGLVQAGGRLRLSCAASGRTFYWNAMGWYRQAPGKERELVAAINGGGSTYYADSVKGRFTISRDNAMNTVYLQINSLKQEDSAVYYCNAESYEFHRAWGDYDYWGHGTQVTVSS”, the “polyreactivity (PSR sort gate)” value is listed as “low polyreactivity”. For “QDQLVESGGGLVQAGGRLRLSCAASGSIFCGNAMGWYRQAPGKERDLVAAITYRSGRTYYADSVKGRFTISRDNAKNTVYFQMNSLKPEDTAVYDCAAEFGGASRYTYNYWGQGTQVTVSS” the value was “low polyreactivity”; for “QDQLVESGGGLVQAGGRLRLSCAASGSTFWWYDMGWYRKAHGKDRELVAAINWSGGSTYYADSVKGRFTISRDNAKNTVYLQMNSLKPEDTAVYYCAKVGRETEYDYWGQGTQVTVSS”, “high polyreactivity”; for “QDQLVESGGGLVQAGGSHRLSCAASGRNFNYNAMGWYRQAPGKERELVAAISGSGGRTYYADSVKGRFTISRDNAKNTVYLQMNSLKPEDTAVYYCAAAGYDSNGRYWGQGTLVTVSS”, “high polyreactivity”.

Turning to “QDQLVESGGGLVQAGGSHRLSCAASGSIFYRNAMGWFRQAPGKERELVAAISARGGRTNYADSVKGRFTISRDNAKNTVYLQMTSLKPEDTAVYYCNTADSWYHRSQAYDYWGQGTQVTVSS”, the “polyreactivity (PSR sort gate)” value is “high polyreactivity”. As for “QDQLVESGGGLVQAGGSHRLSSAASGSILGAYAMGWYRQPPVKERELVAAISRNGGSTYYADSVKGRFTISRDNAKNTVYLQMNRLKPEDTAVYYCAAYYYDNEYDYWGQGTQVTVSS”, the entry is “high polyreactivity”; as for “QDQLVESGGGLVQAGGSLRFSCAPSGFTFTRNPLGCYRQAPGQEREFVARISSRGGSTYYADSVKGRYTISRDIAKNSVYLQMNSLTPEDTAVNYCARDPVGTNSARYNYWGQGTQVTVSS”, “high polyreactivity”; as for “QDQLVESGGGLVQAGGSLRFSCASSGRIFRSYGMGWYRQAPGKERELVARIRNRGGSTYAHSVKGRFTISRDNAKNSVYLQMNSLKPEDTAVYYCAAGAYRHSVFSYDYWGQGTQVTVSS”, “high polyreactivity”.
